Test results as given in patent US5858646.

Biological target: uncleaved ~95 kD pol gene product of recombinant AcNPV-HIVYKpol (HIV-1 pol polypeptide lacking the first 91 amino acids at the NH2-terminus of the HIV-pol protease) (HIV-1)
Assay: ELISA on plates coated with pol, no primary antibody, read at 450 nm

“goat anti-human Ig linked to horse radish peroxidase (Tago Diagnostics, cat 2393) (tool reagent)” showed an OD of less than 0.1 OD.
